Measurements published in PMC12839305.
pKd: −log10 of the molar value.

Biological target: RVFV glycoprotein Gn head domain (154–469 aa) (Rift Valley fever virus) (UniProt P21401)
Test: BLI; […]; 300 s association, 300 s dissociation; […], global 1:1 model; Octet RED96

full-length LRP1 (low-density lipoprotein receptor-related protein 1), native, from porcine lung
pKd: 8.04
